What was measured:
human CD47-Fc = human CD47-Fc (human); experiment: SPR
CD47 on Raji cells = CD47 on Raji cells (human, UniProt Q08722); experiment: FACS, Raji cells, 4C
Chain of CD47 on Raji cells (Q08722 19-323): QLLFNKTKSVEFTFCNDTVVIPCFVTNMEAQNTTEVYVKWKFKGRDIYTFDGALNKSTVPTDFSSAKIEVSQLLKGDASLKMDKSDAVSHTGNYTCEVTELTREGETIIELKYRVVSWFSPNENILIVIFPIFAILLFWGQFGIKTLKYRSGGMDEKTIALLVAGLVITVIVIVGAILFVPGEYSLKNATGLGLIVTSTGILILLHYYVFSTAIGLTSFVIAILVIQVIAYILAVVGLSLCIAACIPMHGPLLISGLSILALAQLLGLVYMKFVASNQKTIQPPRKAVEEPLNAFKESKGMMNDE

Chain of human CD47-Fc (human) (chain, as listed by the source): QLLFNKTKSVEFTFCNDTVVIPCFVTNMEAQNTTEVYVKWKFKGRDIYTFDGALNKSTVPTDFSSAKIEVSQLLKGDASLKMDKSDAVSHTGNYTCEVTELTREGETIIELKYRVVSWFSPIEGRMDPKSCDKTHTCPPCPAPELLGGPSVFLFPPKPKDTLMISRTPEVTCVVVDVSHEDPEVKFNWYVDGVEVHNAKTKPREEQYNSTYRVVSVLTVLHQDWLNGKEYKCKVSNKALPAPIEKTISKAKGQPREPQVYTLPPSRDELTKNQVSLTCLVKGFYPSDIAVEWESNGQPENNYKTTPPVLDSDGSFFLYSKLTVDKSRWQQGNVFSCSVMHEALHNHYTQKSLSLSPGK

| Kd (human CD47-Fc) | EC50 (CD47 on Raji cells) | Binder |
| --- | --- | --- |
| 0.328 nM | 40.4 nM | DARPin protein #1 (designed binder) ALGKKLLQAAARGQDDEVRELLKAGADVNAKDLIGRTPLHLAASIGHLEIVEVLLKAGADVNAKDSRGWTPLHIAAVSGHLEIVEVLLKAGADVNAQDRAGATPADLAAAEGNEDIAEVLQKAA |
| 0.244 nM | 74.7 nM | DARPin protein #4 (designed binder) DLGKKLLQAAARGQDDEVRELLKAGADVNAKDLKGRTPLHLAAATGHPEIVEVLLKAGADVNAKDQFGYTPLHIAAAWGHLEIVEVLLKAGADVNAQDQKGETPADLAAKEGHEDIAEVLQKAA |
| 0.813 nM | 20.9 nM | DARPin protein #2 (designed binder) DLGIKLLHAAFQGQDDEVRILLAAGADVNAKDKVGRTPLHRAAQWGHLEIVEVLLKAGADVNAKDHVGWTPLHLAAWRGHLEIVEVLLKAGADVNAQDASGFTPADLAARQGHEDIAEVLQKAA |
| 0.562 nM | 58.4 nM | DARPin protein #3 (designed binder) DLGRKLLQAAARGQDDEVRELLKAGADVNAKDLHGRTPLHLAAAIGHLEIVEVLLKAGADVNAKDFLGWTPLHIAAFRGHLEIVEVLLKAGADVNAQDEAGETPADLAAQEGHEDIAEVLQKAA |
| 0.24 nM | 48 nM | DARPin protein #6 (designed binder) DLGRKLLQAAARGQDDEVRELLKAGADVNAKDLHGRTPLHLAAAIGHLEIVEVLLKAGADVNAKDVFGYTPLHIAAFRGHLEIVEVLLKAGADVNAQDERGETPADLAAEAGHEDIAEVLQKAA |
| 0.552 nM | 45.5 nM | DARPin protein #5 (designed binder) DLGRKLLQAAARGQDDEVRELLKAGADVNAKDLLGRTPLHLAASIGHLEIVEVLLKAGADVNAKDERGFTPLHIAALQGHLEIVEVLLKAGADVNAQDLEGRTPADLAAEEGHEDIAEVLQKAA |
| 0.352 nM | 28.5 nM | DARPin protein #7 (designed binder) DLGEKLLKAAARGQDDEVRELLKAGADVNAKDLLGRTPLHLAASIGHLEIVEVLLKAGADVNAKDERGYTPLHIAAIVGHLEIVEVLLKAGADVNAQDARGATPADLAAREGHEDIAEVLQKAA |
| 0.102 nM | 17.2 nM | DARPin protein #8 (designed binder) DLGKKLLQAAARGQDDEVRELLKAGADVNAKDLLGRTPLHLAASIGHLEIVEVLLKAGADVNAKDSRGFTPLHLAAIIGHLEIVEVLLKAGADVNAQDLKGLTPADLAAAEGHEDIAEVLQKAA |
